{
  "source": "patent US20050170442",
  "target": "T1, Biotin-labeled fluorescent peptide CPRPFSVPP(S*)PDK-(5-FAM) (not fully specified)",
  "T1 chain": "CPRPFSVPPSPDK",
  "data": [
    {"protein": "GSK3α, rHuman (protein) MSGGGPSGGGPGGSGRARTSSFAEPGGGGGGGGGGPGGSASGPGGTGGGKASVGAMGGGVGASSSGGGPGGSGGGGSGGPGAGTSFPPPGVKLGRDSGKVTTVVATLGQGPERSQEVAYTDIKVIGNGSFGVVYQARLAETRELVAIKKVLQDKRFKNRELQIMRKLDHCNIVRLRYFFYSSGEKKDELYLNLVLEYVPETVYRVARHFTKAKLTIPILYVKVYMYQLFRSLAYIHSQGVCHRDIKPQNLLVDPDTAVLKLCDFGSAKQLVRGEPNVSYICSRYYRAPELIFGATDYTSSIDVWSAGCVLAELLLGQPIFPGDSGVDQLVEIIKVLGTPTREQIREMNPNYTEFKFPQIKAHPWTKVFKSRTPPEAIALCSSLLEYTPSSRLSPLEACAHSFFDELRCLGTQLPNNRPLPPLFNFSAGELSIQPSLNAILIPPHLRSPAGTTTLTPSSQALTETPTSSDWQSTDATPTLTNSS", "values": [
      {"measurement": "TR-FRET ratio (Em520/Em495) after kinase reaction, chymotrypsin development and Tb-streptavidin detection", "value": "with GSK3a, a higher TR-FRET ratio than without GSK3α is seen"},
      {"measurement": "TR-FRET ratio (Em520/Em495) in the chymotrypsin titration", "value": "with GSK3α a higher TR-FRET ratio than without GSK3α is seen"},
      {"measurement": "amount of enzyme/well needed for roughly 50% maximal signal at 10 µM ATP/well (TR-FRET enzyme titration)", "value": 0.05, "unit": "µg/ml for GSK3α"}
    ]}
  ]
}
